{"source": "paper PMC9963377", "target": "tetrameric CDV attachment protein H-ectodomain (strain A75/17), with N-terminal tetrameric GCN4 motif (canine distemper virus (strain A75/17))", "assay": "cryo-EM structure", "data": [{"substance": "tetrameric CDV attachment protein H-ectodomain (strain A75/17), with N-terminal tetrameric GCN4 motif (domain or fragment)", "values": [{"measurement": "stoichiometry N", "value": 4}]}]}
